Experiment [1] concerns the target TFPI (form not stated, Example 5) (UniProt P10646 29-304, limits assumed). The experiment can be described thus: method not stated.
Experiment [2] concerns the target T1, human TFPI alpha (full-length TFPIα) (human, UniProt P10646 29-304). Kind of experiment: cell-based or functional assay.
The target of experiment [3] is T2, endogenous TFPI of human plasma (human, UniProt P10646 29-304, limits assumed). Kind of experiment: cell-based or functional assay.
The target in experiment [4] is TFPI KPI-2 fragment spanning the KPI-2 domain of TFPI with a C-terminal HIS6 tag (human, UniProt P10646 119-178). Kind of experiment: SPR (Biacore T200), bispecific captured by anti-Fab kappa antibody, antigen as analyte, 1:1 Langmuir fit. The procedure: (§1) Binding studies were performed on a Biacore T200 (GEHealthcare) that measures molecular interactions in real time through surface plasmon resonance. Experiments were run at 25° C. and the samples were stored at 15° C. in the sample compartment. The signal (RU, response units) reported by the Biacore is directly correlated to the mass on the individual sensor chip surfaces in four serial flow cells. Goat anti Fab Kappa Light Chain antibody (Nordic Biosite) was immobilized onto all four flow cells of a CM4 sensor chip according to the manufacturer's instructions. Capture of purified bispecific molecules was conducted by diluting the proteins into running buffer (10 mM Hepes 0.3 M NaCl, 5 mM CaCl₂, 0.05% surfactant P20, 10 mg/ml BSA, pH 7.4) and injected over flowcell 2, 3 or 4, creating a reference surface in flow cell 1 with only anti-Fab antibody immobilized. […] Binding of TFPI FL (SEQ ID NO: 1), TFPI (1-79), and TFPI KPI-2 proteins was conducted by injecting analyte (antigen) over all flow cells to allow for comparative analyses of binding to different captured bispecific molecules relative to binding to the reference surface. The TFPI (1-79) fragment spans the N-terminal and KPI-1 domain of TFPI with an N-terminally attached GSSGSSG tag (SEQ ID NO: 16). The TFPI KPI-2 fragment spans the KPI-2 domain of TFPI with a C-terminal HIS₆ tag (SEQ ID NO: 3). Antigens were diluted serially into running buffer, injected at 30 μl/min for 240 s and allowed to dissociate for 600 s or 14000 s. Prolonging the monitoring of dissociation phase for antigens that dissociates slowly with kd approaching 1E-5 s⁻¹ is crucial to get a robust value for the dissociation rate. The CM4 surface was regenerated after each injection cycle of analyte via injection of 10 mM Glycine, pH 2.1. This regeneration step removed the anti-TFPI bispecific molecule and any bound antigen from the immobilized capture antibody surface, and allowed for the subsequent binding of the next interaction sample pair.

The target of experiment [5] is T3, TFPI (1-79) fragment, N-terminal and KPI-1 domain of TFPI with an N-terminally attached GSSGSSG tag (human, UniProt P10646 29-107).
T3 construct: also called tagged TFPI KPI-1/N-terminal; TFPI KPI-1
The description is as above. The method, then: as §1

The target in experiment [6] is T1, human TFPI alpha (full-length TFPIα). The experiment can be described thus: cell-based or functional assay. The source holds these as a separate data set.
The target of experiment [7] is T2, endogenous TFPI of human plasma. Kind of experiment: cell-based or functional assay. The source holds these as a separate data set.

Numbering of substitutions follows the chain as printed. In names and notes the source's numbering stands.

B1: mAb 2007 (antibody, V domains shown)
VH: EVQLVESGGGLVKPGGSLRLSCAASGFTFSNYAMSWVRQAPGKGLEWVSTISRSGSYSYYPDSVKGRFTISRDNAKNSLYLQMNSLRAEDTAVYYCARLGGYDEGDAMDSWGQGTTVTVSS
VL: DIVMTQTPLSLSVTPGQPASISCKSSQSLLESDGKTYLNWYLQKPGQSPQLLIYLVSILDSGVPDRFSGSGSGTDFTLKISRVEAEDVGVYYCLQATHFPQTFGGGTKVEIKR
notes: Grafted HzTFPI4F36 with a single A60P (Kabat) back mutation in VH
As for B1, the “fold lower TFPI binding affinity than mAb 2021” value in experiment [1] came out at 10 fold.

B2: mAb 2000 (antibody, IgG4, V domains shown)
VH: B1 VH with P61A
VL: B1 VL
notes: Human kappa/IgG4 (S241P); also called initial grafted HzTFPI4F36 variant
For B2, the “fold lower TFPI binding affinity than mAb 2021” value in experiment [1] was roughly 1000 fold.

B3: mAb 0421 (bispecific antibody, human IgG1, kappa)
heavy 1: not shown
light 1: DIVMTQTPLSLSVTPGQPASISCKSSQSLLESDGKTYLNWYLQKPGQSPQLLIYLVSILDSGVPDRFSGSGSGTDFTLKISRVEAEDVGVYYCLQATHFPQTFGGGTKVEIKRTVAAPSVFIFPPSDEQLKSGTASVVCLLNNFYPREAKVQWKVDNALQSGNSQESVTEQDSKDSTYSLSSTLTLSKADYEKHKVYACEVTHQGLSSPVTKSFNRGEC
heavy 2: not shown
light 2: GIVMTQSQKFMSTTVGDRVSITCKASQSVGPAVAWYQQKPGQSPKLLIYSASNRYTGVPDRFTGSGSGADFTLTISNLHSEDLADYFCQQYTSYPTFGGGTKLEIKRTVAAPSVFIFPPSDEQLKSGTASVVCLLNNFYPREAKVQWKVDNALQSGNSQESVTEQDSKDSTYSLSSTLTLSKADYEKHKVYACEVTHQGLSSPVTKSFNRGEC
notes: Full length human IgG1 format, made by controlled Fab-arm exchange; also called asymmetric bispecific antibody derived from mAb 0310 and mAb 0336
As to B3, in experiment [2], the “EC50; thrombin generation, FVIII-neutralised plasma + 10 nM full-length TFPI alpha; single experiment” value worked out at 9.5 nM and the “EC50 of the thrombin generation response in FVIII-neutralised plasma + 10 nM full-length TFPI alpha” value was 9.5 nM. Also, in experiment [3], the “EC50 (half-maximal response); thrombin generation, FVIII-neutralised plasma, no TFPI added; four-parameter fit, average of 2 experiments” value was 1.1 nM and the “EC50 of the thrombin generation response in FVIII-neutralised plasma without added TFPI” value was 1.1 nM. In experiment [4], this molecule had a Kd of 0.02 nM, a koff of 8e-05 s⁻¹ and a kon of 5e+06 M⁻¹ s⁻¹. For the same molecule, in experiment [5], the affinity, expressed as Kd, was 0.3 nM; the koff came to 0.0001 s⁻¹; the kon amounted to 400000 M⁻¹ s⁻¹. Also, in experiment [6], the “Peak (nM); thrombin generation, FVIII-neutralized plasma + 10 nM TFPI alpha; 100.0 nM mAb” value is 177 nM and the “ttPeak (min); thrombin generation, FVIII-neutralized plasma + 10 nM TFPI alpha; 100.0 nM mAb” value came out at 7 min. For the same molecule, in experiment [7], the “Peak (nM); thrombin generation, FVIII-neutralized plasma, no TFPI added; 10.0 nM mAb” value was 182 nM and the “ttPeak (min); thrombin generation, FVIII-neutralized plasma, no TFPI added; 10.0 nM mAb” value worked out at 6.9 min.

B4: BiFab 9041 (bispecific antibody)
heavy 1: EVQLVESGGGLVKPGGSLRLSCAASGFTFSNYAMSWVRQTPEKRLEWVATISRSGSYSYFPDSVQGRFTISRDNAKNSLYLQMNSLRAEDTAVYYCARLGGYDEGDAMDSWGQGTTVTVSSASTKGPSVFPLAPCSRSTSESTAALGCLVKDYFPEPVTVSWNSGALTSGVHTFPAVLQSSGLYSLSSVVTVPSSSLGTKTYTCNVDHKPSNTKVDKRVESKYGPPC
light 1: B3 light 1
heavy 2: QVQLKQSGPGLVQPSQSLSITCTVSGFSLTNYGVHWVRQSPGKGLEWLAVIWRGGSIDYNAAFMSRLSITKDNSKSQVFFKMNSLQADDTAIYYCAKNSHGNYVGYAMDYWGQGTSVTVSSASTKGPSVFPLAPCSRSTSESTAALGCLVKDYFPEPVTVSWNSGALTSGVHTFPAVLQSSGLYSLSSVVTVPSSSLGTKTYTCNVDHKPSNTKVDKRVESKYGPPC
light 2: B3 light 2
modifications: C-terminal cysteine linked through the bis-maleimide linker to the C-terminal cysteine of the other Fab's heavy chain; C-terminal cysteine linked through 1,16-bis(2,5-pyrroledione-1-yl)-4,13-diaza-7,10-dioxa-3,14-dioxohexadecane to the C-terminal cysteine of the other Fab's heavy chain
notes: also called Fab 0088 conjugated to Fab 0295
In experiment [4], B4 yielded a Kd of 0.01 nM, a koff of 6e-05 s⁻¹ and a kon of 4e+06 M⁻¹ s⁻¹. Further, in experiment [5], the affinity, expressed as Kd, was 0.9 nM; the koff was found to be 0.0003 s⁻¹; the kon was determined as 300000 M⁻¹ s⁻¹.
